Results: paper PMC12155224, “Rare missense variants of the leukocyte common antigen related receptor (LAR) display reduced activity in transcellular adhesion and synapse formation” (Research Square, 2025)
Blank lines part the entries; values can stand above or below the molecule they belong to.

Assays:
[1] = target: LAR P381L, full length (human) (UniProt P10586)
[2] = target: LAR P417L, full length (human) (UniProt P10586)
[3] = target: LAR V389M, full length (human) (UniProt P10586)
[4] = target: T1, NGL-3 ECD (extracellular domain of Netrin-G ligand 3, Fc cleaved off) (UniProt Q9NT99 36-576); assay: MST; His-tagged LAR FN1–4 labelled with RED-tris-NTA, 100 nM; NGL-3 in 1:1 dilution series; 25 mM HEPES pH 7.5, 150 mM NaCl, 0.005 % Tween20; 1 h at RT; Monolith NT.115, medium MST power; MST on time 2.5 s; 1:1 KD model; details: both partners purified
T1 construct: after cleavage LEVLFQ should remain at the C-terminus (surmised); source: ExpiCHO-S, purified (Protein A, Fc cleaved off with 3C protease, SEC); not shown: Fc, C-terminal, cleaved
T1 sequence (looked up): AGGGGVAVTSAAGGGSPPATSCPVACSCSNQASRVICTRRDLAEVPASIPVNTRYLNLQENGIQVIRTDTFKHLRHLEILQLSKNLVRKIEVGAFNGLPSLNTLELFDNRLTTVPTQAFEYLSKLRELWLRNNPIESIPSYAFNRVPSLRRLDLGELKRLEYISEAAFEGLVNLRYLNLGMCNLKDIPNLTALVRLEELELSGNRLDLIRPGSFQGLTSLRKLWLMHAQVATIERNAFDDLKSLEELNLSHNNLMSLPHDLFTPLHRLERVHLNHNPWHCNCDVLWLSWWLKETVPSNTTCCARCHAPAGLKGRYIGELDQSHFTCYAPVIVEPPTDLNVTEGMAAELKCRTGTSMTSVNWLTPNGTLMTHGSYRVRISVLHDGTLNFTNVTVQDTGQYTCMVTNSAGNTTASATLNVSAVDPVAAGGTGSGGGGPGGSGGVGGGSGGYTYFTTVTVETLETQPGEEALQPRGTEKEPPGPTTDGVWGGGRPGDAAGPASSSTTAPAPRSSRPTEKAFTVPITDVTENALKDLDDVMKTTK

- cell aggregation index: HEK293T cells with LAR variant + mCherry mixed with HEK293T cells with NGL-3 (NGL-3-CFP, whole on cells, not the Fc fusion) + GFP; decrease against WT LAR [1]: > 50 % decrease
- cell aggregation index: HEK293T cells with LAR variant + mCherry mixed with HEK293T cells with NGL-3 (NGL-3-CFP, whole on cells, not the Fc fusion) + GFP; decrease against WT LAR [2]: > 50 % decrease
- cell aggregation index: HEK293T cells with LAR variant + mCherry mixed with HEK293T cells with NGL-3 (NGL-3-CFP, whole on cells, not the Fc fusion) + GFP; decrease against WT LAR [3]: > 50 % decrease
Molecule: NGL-3-Fc (soluble fusion of the NGL-3 extracellular domain with Fc) (from UniProt Q9NT99 36-576)

- Kd [4]: 3.68 µM
B1: LAR FN1–4 WT (recombinant fibronectin III domains 1–4 of human LAR) (domain or fragment)
chain: PKPPIDLVVTETTATSVTLTWDSGNSEPVTYYGIQYRAAGTEGPFQEVDGVATTRYSIGGLSPFSEYAFRVLAVNSIGRGPPSEAVRARTGEQAPSSPPRRVQARMLSASTMLVQWEPPEEPNGLVRGYRVYYTPDSRRPPNAWHKHNTDAGLLTTVGSLLPGITYSLRVLAFTAVGDGPPSPTIQVKTQQGVPAQPADFQAEVESDTRIQLSWLLPPQERIIMYELVYWAAEDEDQQHKVTFDPTSSYTLEDLKPDTLYRFQLAARSDMGVGVFTPTIEARTAQSTPSAPPQKVMCVSMGSTTVRVSWVPPPADSRNGVITQYSVAYEAVDGEDRGRHVVDGISREHSSWDLVGLEKWTEYRVWVRAHTDVGPGPESSPVLVRTDED
modifications: RED-tris-NTA 2nd generation dye on the His tag
notes: leukocyte common antigen related receptor (LAR, PTPRF), human, FN1–4 domains; TEV cleavage site between the His tag and the domains; also called WT LAR FN1–4; LAR FN1–4 domain; source: E. coli BL21(DE3), purified (HisTrap HP or Talon beads, SEC); not shown: His6, N-terminal, kept
